{"source": "patent US20170296650A1", "about": "(Novartis, published 2017)", "binders": {"B1": {"name": "7H3 (antibody, V domains shown)", "VH": "QVQLVQSGAEVKNPGASVKVSCKASGYTFTDYYIHWVRQAPGQGLEWMGWFNPNSGGTNFVQNFQGRVTMTRDTSISTAYMELSRLRSDDTAMYYCAKDSAKTASAYYGLNFFYYGMDVWGQGTTVTVSS", "VL": "QSVLSQPPSASGTPGQRVTISCSGSSSNIGKNYVYWYQQVPGTAPKLLMFKNNQRPSGVPDRFSGSKSGTSASLAISGLRSEDEADYYCSAWDGSLSRPLFGGGTKVTVL", "notes": "fully human IgG1 with unaltered Fc; also called 7H3-biotin; LJP538"}, "B2": {"name": "6L3 (antibody, V domains shown)", "VH": "EVRLEESGGGLVQPGGSLRLSCAASGFTVSTTYMAWVRQAPGKGLEWVSLIHTGGIFGVGGTSYADSVKGRFTISRDTSKNTVSLQMSSLRVEDTAIYFCAREHRGTIDAFDAWGQGTVVIVSS", "VL": "DIHMTQSPSSLSASVGDRVTITCRASQNIRNYLNWYQHKPGKAPKLLIYTTSRLQSGVPSRFSGSGSGTDFTLTVNSLQPEDFASYYCQQSYDGWTFGQGTKVEMK"}}, "key": {"[1]": {"biological_target": "T1, hCMV glycoprotein B (gB; HEK293T transfectant) (hCMV, UniProt P06473 32-906)", "T1 construct": "whole, on cells; in the functional rows it stands for gB on virions or transduced cells of the strain or isolate named in the readout", "T1 sequence (P06473 32-906 limits assumed)": "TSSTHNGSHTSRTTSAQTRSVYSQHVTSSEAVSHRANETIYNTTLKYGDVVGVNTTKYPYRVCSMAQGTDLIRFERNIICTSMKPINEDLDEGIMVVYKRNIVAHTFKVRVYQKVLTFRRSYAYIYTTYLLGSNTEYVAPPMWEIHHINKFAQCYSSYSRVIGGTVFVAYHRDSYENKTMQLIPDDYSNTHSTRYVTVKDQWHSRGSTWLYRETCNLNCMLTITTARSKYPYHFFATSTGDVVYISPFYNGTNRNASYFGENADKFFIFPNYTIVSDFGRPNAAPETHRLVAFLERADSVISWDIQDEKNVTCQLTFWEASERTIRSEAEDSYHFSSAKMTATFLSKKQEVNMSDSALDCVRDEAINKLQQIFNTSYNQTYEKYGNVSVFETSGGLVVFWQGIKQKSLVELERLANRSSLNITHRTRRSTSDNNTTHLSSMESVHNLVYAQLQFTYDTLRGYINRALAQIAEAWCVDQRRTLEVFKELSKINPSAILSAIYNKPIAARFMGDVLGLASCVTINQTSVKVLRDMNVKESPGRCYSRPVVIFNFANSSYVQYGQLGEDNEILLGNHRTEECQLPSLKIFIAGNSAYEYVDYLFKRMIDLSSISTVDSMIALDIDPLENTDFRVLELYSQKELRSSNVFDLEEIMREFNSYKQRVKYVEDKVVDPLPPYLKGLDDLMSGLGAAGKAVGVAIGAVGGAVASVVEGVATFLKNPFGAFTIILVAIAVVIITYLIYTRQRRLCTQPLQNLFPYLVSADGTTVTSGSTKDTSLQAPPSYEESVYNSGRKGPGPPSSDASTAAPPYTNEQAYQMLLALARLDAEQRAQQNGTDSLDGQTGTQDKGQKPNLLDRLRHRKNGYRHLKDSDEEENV", "assay": "cell competition; competitor 6B4-biotin"}, "[2]": {"biological_target": "T1, hCMV glycoprotein B (gB; HEK293T …)", "assay": "cell-based or functional assay"}, "[3]": {"biological_target": "hCMV gB E381 deletion (virus selected with 7H3 in epithelial cells) (hCMV)", "assay": "cell-based or functional assay"}, "[4]": {"biological_target": "hCMV gB E361K + D362N (virus selected with 7H3 in fibroblasts) (hCMV)", "assay": "cell-based or functional assay"}, "[5]": {"biological_target": "T1, hCMV glycoprotein B (gB; HEK293T …)", "assay": "cell-based or functional assay", "remark": "listed apart in the source"}, "[6]": {"biological_target": "T2, soluble gB ectodomain expressed in a mammalian cell line (hCMV, UniProt P06473 32-750)", "T2 construct": "extracellular domain", "T2 sequence (P06473 32-750 limits assumed)": "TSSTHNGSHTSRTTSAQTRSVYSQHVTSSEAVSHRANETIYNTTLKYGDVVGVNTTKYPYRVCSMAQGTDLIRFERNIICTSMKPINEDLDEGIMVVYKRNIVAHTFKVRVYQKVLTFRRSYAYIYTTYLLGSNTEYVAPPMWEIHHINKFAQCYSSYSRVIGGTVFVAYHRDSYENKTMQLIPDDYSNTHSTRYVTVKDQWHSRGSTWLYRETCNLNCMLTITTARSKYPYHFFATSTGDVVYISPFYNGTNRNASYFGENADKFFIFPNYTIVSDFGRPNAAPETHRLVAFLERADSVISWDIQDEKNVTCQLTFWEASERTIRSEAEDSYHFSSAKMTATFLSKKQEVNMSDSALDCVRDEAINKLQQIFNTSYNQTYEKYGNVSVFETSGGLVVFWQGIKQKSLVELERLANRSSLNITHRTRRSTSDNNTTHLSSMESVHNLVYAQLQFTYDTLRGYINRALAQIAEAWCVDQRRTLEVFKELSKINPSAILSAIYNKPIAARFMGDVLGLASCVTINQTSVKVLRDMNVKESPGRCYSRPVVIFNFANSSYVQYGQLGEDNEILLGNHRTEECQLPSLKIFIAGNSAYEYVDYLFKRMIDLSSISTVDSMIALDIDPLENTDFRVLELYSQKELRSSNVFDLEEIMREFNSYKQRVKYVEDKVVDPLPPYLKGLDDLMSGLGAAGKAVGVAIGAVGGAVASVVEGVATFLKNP", "assay": "ELISA, soluble gB ectodomain; ELISA on soluble gB ectodomain (4I22 was measured by Biacore on the 5-member complex)"}, "[7]": {"biological_target": "T1, hCMV glycoprotein B (gB; HEK293T …)", "assay": "cell-based or functional assay", "remark": "listed apart in the source"}, "[8]": {"biological_target": "T1, hCMV glycoprotein B (gB; HEK293T …)", "assay": "cell competition; competitor 5F1-biotin"}, "[9]": {"biological_target": "T1, hCMV glycoprotein B (gB; HEK293T …)", "assay": "cell competition; competitor 4H9-biotin"}, "[10]": {"biological_target": "T1, hCMV glycoprotein B (gB; HEK293T …)", "assay": "cell-based or functional assay", "remark": "listed apart in the source"}, "[11]": {"biological_target": "T1, hCMV glycoprotein B (gB; HEK293T …)", "assay": "cell-based or functional assay", "remark": "listed apart in the source"}, "[12]": {"biological_target": "T1, hCMV glycoprotein B (gB; HEK293T …)", "assay": "cell competition; competitor 10C6-biotin"}, "[13]": {"biological_target": "T1, hCMV glycoprotein B (gB; HEK293T …)", "assay": "cell competition; competitor 2B11-biotin"}, "[14]": {"biological_target": "T1, hCMV glycoprotein B (gB; HEK293T …)", "assay": "cell competition; competitor 7H3-biotin"}, "[15]": {"biological_target": "T1, hCMV glycoprotein B (gB; HEK293T …)", "assay": "cell-based or functional assay", "remark": "listed apart in the source"}, "[16]": {"biological_target": "T3, hCMV gM + gN (HEK293T co-transfectant) (hCMV, UniProt P16733 1-372; P16795 22-138)", "T3 sequence 1": "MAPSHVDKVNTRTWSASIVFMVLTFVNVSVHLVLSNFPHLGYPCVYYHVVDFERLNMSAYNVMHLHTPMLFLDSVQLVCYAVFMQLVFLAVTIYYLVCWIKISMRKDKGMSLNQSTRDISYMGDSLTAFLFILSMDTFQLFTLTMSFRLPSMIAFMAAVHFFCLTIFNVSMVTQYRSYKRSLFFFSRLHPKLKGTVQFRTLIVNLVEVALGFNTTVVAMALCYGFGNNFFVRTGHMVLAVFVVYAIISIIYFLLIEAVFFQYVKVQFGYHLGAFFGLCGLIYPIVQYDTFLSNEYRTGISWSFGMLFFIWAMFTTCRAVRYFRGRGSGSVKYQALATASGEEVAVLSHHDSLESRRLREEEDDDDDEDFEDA", "T3 sequence 2": "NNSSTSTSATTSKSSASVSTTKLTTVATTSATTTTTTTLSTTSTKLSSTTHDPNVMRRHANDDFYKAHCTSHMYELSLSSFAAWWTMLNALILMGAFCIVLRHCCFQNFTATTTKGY", "assay": "cell-based or functional assay"}, "[17]": {"biological_target": "T3, hCMV gM + gN (HEK293T co-transfectant)", "assay": "cell-based or functional assay", "remark": "listed apart in the source"}}}
{"binder": "B1", "values": [{"measurement": "Inhibition of binding (%)", "setting": "[1]", "value": 0, "unit": "%"}, {"measurement": "neutralization of ARPE infection, isolate TM-20749", "setting": "[2]", "value": 4.36, "unit": "µg/mL"}, {"measurement": "neutralization of ARPE infection, isolate TM-31354", "setting": "[2]", "value": 1.42, "unit": "µg/mL"}, {"measurement": "neutralization of ARPE infection, isolate TM-E5271", "setting": "[2]", "value": 0.17, "unit": "µg/mL"}, {"measurement": "neutralization of ARPE infection, isolate TM-E9361", "setting": "[2]", "value": 0.33, "unit": "µg/mL"}, {"measurement": "neutralization of ARPE infection, isolate TM-E14953", "setting": "[2]", "value": 1.09, "unit": "µg/mL"}, {"measurement": "neutralization of ARPE infection, isolate TM-E19664", "setting": "[2]", "value": 0.26, "unit": "µg/mL"}, {"measurement": "neutralization of ARPE infection, isolate TM-E20744", "setting": "[2]", "value": 1.37, "unit": "µg/mL"}, {"measurement": "neutralization of ARPE infection, isolate TM-E28175", "setting": "[2]", "value": 0.24, "unit": "µg/mL"}, {"measurement": "neutralization of ARPE infection, isolate TM-E28257", "setting": "[2]", "value": 1.16, "unit": "µg/mL"}, {"measurement": "fold decrease in susceptibility of escape virus", "setting": "[3]", "value": 22, "unit": "fold"}, {"measurement": "fold increase in neutralization EC50 of escape virus", "setting": "[4]", "value": "> 41", "unit": "fold"}, {"measurement": "EC50 inhibition of cell-cell fusion", "setting": "[5]", "value": 4.77, "unit": "µg/mL"}, {"measurement": "Kd", "setting": "[6]", "value": 290, "unit": "pM"}, {"measurement": "EC90 neutralization HUVEC, isolate TM-20749", "setting": "[7]", "value": 1.18, "unit": "µg/mL"}, {"measurement": "EC90 neutralization HUVEC, isolate TM-31354", "setting": "[7]", "value": 2.2, "unit": "µg/mL"}, {"measurement": "EC90 neutralization HUVEC, isolate TM-E5271", "setting": "[7]", "value": 0.19, "unit": "µg/mL"}, {"measurement": "EC90 neutralization HUVEC, isolate TM-E9361", "setting": "[7]", "value": 0.29, "unit": "µg/mL"}, {"measurement": "EC90 neutralization HUVEC, isolate TM-E14953", "setting": "[7]", "value": 0.12, "unit": "µg/mL"}, {"measurement": "EC90 neutralization HUVEC, isolate TM-E19664", "setting": "[7]", "value": 0.31, "unit": "µg/mL"}, {"measurement": "EC90 neutralization HUVEC, isolate TM-E20744", "setting": "[7]", "value": 0.39, "unit": "µg/mL"}, {"measurement": "EC90 neutralization HUVEC, isolate TM-E28175", "setting": "[7]", "value": 0.28, "unit": "µg/mL"}, {"measurement": "EC90 neutralization HUVEC, isolate TM-E28257", "setting": "[7]", "value": 1.02, "unit": "µg/mL"}, {"measurement": "Inhibition of binding (%)", "setting": "[8]", "value": 0, "unit": "%"}, {"measurement": "Inhibition of binding (%)", "setting": "[9]", "value": 0, "unit": "%"}, {"measurement": "50% neutralization VR1814, ARPE", "setting": "[10]", "value": "> 2", "unit": "µg/mL"}, {"measurement": "50% neutralization VR1814, MRC-9", "setting": "[10]", "value": "≤ 2", "unit": "µg/mL"}, {"measurement": "50% neutralization VR1814, BM-MSC", "setting": "[11]", "value": 2, "unit": "µg/mL"}, {"measurement": "50% neutralization VR1814, Mo-DC", "setting": "[11]", "value": 0.06, "unit": "µg/mL"}, {"measurement": "Inhibition of binding (%)", "setting": "[12]", "value": 0, "unit": "%"}, {"measurement": "Inhibition of binding (%)", "setting": "[13]", "value": 0, "unit": "%"}, {"measurement": "Inhibition of binding (%)", "setting": "[14]", "value": 100, "unit": "%"}, {"measurement": "90% neutralization VR1814, ARPE", "setting": "[15]", "value": 0.6, "unit": "µg/mL"}, {"measurement": "90% neutralization VR1814, MRC-9", "setting": "[15]", "value": 3, "unit": "µg/mL"}]}
{"binder": "B2", "values": [{"measurement": "50% neutralization VR1814, ARPE", "setting": "[16]", "value": "≤ 2", "unit": "µg/mL"}, {"measurement": "90% neutralization VR1814, ARPE", "setting": "[17]", "value": 10, "unit": "µg/mL"}, {"measurement": "90% neutralization VR1814, MRC-9", "setting": "[17]", "value": 30, "unit": "µg/mL"}]}
